This note sets out measurements from the DeepSol protein solubility set.

The nature of this data set: soluble on expression in E. coli; label from the status in PepcDB or PDB records.
As to “MGTNLPTEVGQILSAPTSIDYNYPTTGVWDASYDICLDSTPKTTGVNQQEIMIWFNHQGSIQPVGSPVGNTTIEGKNFVVWDGSNGMNNAMAYVATEPIEVWSFDVMSFVDHTATMEPITDSWYLTSIRAGLEPWSDGVGLGVDSFSAKVN”, the “soluble on expression in E. coli” value is on record as “soluble”. Regarding “MGTYVEPSKLSYGEYLESWFNTKRHSVGIQTAKVLKGYLNSRIIPSLGNIKLAKLTSLHMQNYVNSLRDEGLKRGTIEKIIKVIRNSLEHAIDLELITKNVAAKTKLPKADKEELEHHHHHH”, the “soluble on expression in E. coli” value is reported as “not soluble”. Next, “MGVATMVTDKYQKCIDACNRCSQACYECFKACLNEPDVNARRTCISILFECAQMCQMSSALMSMDAQFAIDHCKLCSVICDKCAQECSMFQDPHCQKCANECRTCSNECRMMSGMLEHHHHHH”: “soluble”.

Take “MGVLDHVSEYFDCSHGSSKRHKSLQTVDVRVLIDCEGCERKVRRALEGMRGIRDVTIEPNAQKVTVVGYVEPNKVVARIIHRTGKRAELYPFVPYDVVAHPYASGVYDNRAPTGYVRNTEYDPHVSRLARASSTEVRYTTAFSDENASACVVM”: the “soluble on expression in E. coli” value is on record as “soluble”.

As for “MHAIDFKEIQEKLSDGFRPWQRSFQFWARATDIYTGYKVFQLRMNFVKDVNKHEEMWERQHELAAHKVYSMCSDLGGFFLKIAQILGKPDLAPAAWVRKLVTLCDQAPATPFDAVRVVLEKELGKSIEQVFETFDEKPLGSASIAQVQHPGVEKLMMVDIRNLQIFALYMQKTDIKFDLFSMTKEIEKQIGYEFDFKREANAMEKIRRFLYDNNRKSPVLVPRVFPNLVTRKVLVMEFMNGIPILSLGDEMAKRGINPHGKMAEAAKFNILHSLSQAYGQMILKSGFFHADPHPGNILIGKGSEASHLLELGIATVAKCKNEQQELLQLAKTMFDTEMPPGTTTLQPFSEDSSIKKISVEAFPEELFSVLRTVVLLRGLSVGIGINYSCAQHWRAMAEEALHASGRLSTG”, the “soluble on expression in E. coli” value is on record as “soluble”. For “MHCSLYTRFNVENAGGDFSVGGARVCFRIPENPCSPRPAVAGRANPLPPVADFGMKEVRTKKKKHMTNDVNGMKKKCGRPALGRTRKLTRGVTVKFSPVSYEALRFRAGKSGRSLAVYIREAALAATVTARHTPEENALLRSLAGMANNLNQLTKLSHQTGFYRTRLLIEGLLGKLKRIMDDYRPKGG” the value was “not soluble”. For “MHDHMITFQLATHFLSRIALRLEYLFKTINEACNESHEVIHRFALKNIIEIVEIVEKPELKSRFIKELIRIEHVLKKANLLNHSELFDDLETQIHVLNHVPGRFSNKIHDDEFLKTLRQIHHPNTKECEFNSPHLVLWFDSDPLMRQKTISQWVSCLKDLEDTVKIYLSLLRGVTQYTPIRANNGFYQHSLSPKSLNHLILLRIDKKLKMIPKIQLGHHSLTIRLYELVTGQEIRDKTIEMEIAFCQI” the value was “not soluble”; for “MHECKTVTLRTRPLKGRMMSFYLDYYPGYRDKETMKVIRHESLGIYIYANPRNKREQNFNEVMTEKAEAIRCRRFESVVNERYDFFDKYKLKADFLEYYRKQLRKHDQKWEFVYLHFNNFVHGKCTFEEIDIDLCNKFREYLLSAKKLRRNGRITRNSASGYWSTFRGFLKILYRNGMIKTNVNDFLEKIETEDVMKEALSVEELYKLAETPCKKPILKTASLFSCMTSLRISDILSLCWEDIVDYSAGGKCVHIITQKNKAEDIIPISEEALGLIGYSSEKKGLVFKGLMRSWTQIPMKEWI”, “not soluble”. “MHGITIDSGRALDMLASMIEEAEQQYQAHMRETPHYEPASAGEGFVAYGESINSLFQLLHQRNAQRLELIKLGLEDARQRVHDLSNTDTEFAARLGAVE”: the “soluble on expression in E. coli” value is listed as “not soluble”. For “MHHHHHHSSGRENLYFQGASEALKVVARCRPLSRKEEAAGHEQILTMDVKLGQVTLRNPRAAPGELPKTFTFDAVYDASSKQADLYDETVRPLIDSVLQGFNGTVFAYGQTGTGKTYTMQGTWVEPELRGVIPNAFEHIFTHISRSQNQQYLVRASYLEIYQEEIRDLLSKEPGKRLELKENPETGVYIKDLSSFVTKNVKEIEHVMNLGNQTRAVGSTHMNEVSSRSHAIFIITVECSERGSDGQDHIRVGKLNLVDLAGSERQNKAGPNTAGGAATPSSGGGGGGGGSGGGAGGERPKEASKINLSLSALGNVIAALAGNRSTHIPYRDSKLTRLLQDSLGGNAKTIMVATLGPASHSYDESLSTLRFANRAKNIKNKPRVNEDPKDTLLREF” the value was “soluble”; for “MHHHHHHSSGRENLYFQGERVFGCDLGEHLLNSGFEVPQVLQSCTAFIERYGIVDGIYRLSGVASNIQRLRHEFDSEHVPDLTKEPYVQDIHSVGSLCKLYFRELPNPLLTYQLYEKFSDAVSAATDEERLIKIHDVIQQLPPPHYRTLEFLMRHLSLLADYCSITNMHAKNLAIVWAPNLLRSKQIESACFSGTAAFMEVRIQSVVVEFILNHVDVLFSGRISMAMQE”, “soluble”; for “MHHHHHHSSGRENLYFQGNTTKHIILVRHGQYERRYKDDENSKRLTKEGCKQADITGKKLKDILNNKKVSVIYHSDMIRAKETANIISKYFPDANLINDPNLNEGTPYLPDPLPRHSKFDAQKIKEDNKRINKAYETYFYKPSGDEDEYQLVICHGNVIRYFLCRALQIPLFAWLRFSSYNCGITWLVLDDEGSVVLREFGSVSHLPFESVTYF”, “soluble”. Next, “MHHHHHHSSGVDLGTENLYFQSGVVTHEQFKAALRMVVDQGDPRLLLDSYVKIGEGSTGIVCLAREKHSGRQVAVKMMDLRKQQRRELLFNEVVIMRDYQHFNVVEMYKSYLVGEELWVLMEFLQGGALTDIVSQVRLNEEQIATVCEAVLQALAYLHAQGVIHRDIKSDSILLTLDGRVKLSDFGFCAQISKDVPKRKSLVGTPYWMAPEVISRSLYATEVDIWSLGIMVIEMVDGEPPYFSDSPVQAMKRLRDSPPPKLKNSHKVSPVLRDFLERMLVRDPQERATAQELLDHPFLLQTGLPECLVPLIQLYRKQTSTC”: “soluble”; “MHHHHHHSSGVDLGTENLYFQSMARPATVLGAMEMGRRMDAPTSAAVTRAFLERGHTEIDTAFVYSEGQSETILGGLGLRLGGSDCRVKIDTKAIPLFGNSLKPDSLRFQLETSLKRLQCPRVDLFYLHMPDHSTPVEETLRACHQLHQEGKFVELGLSNYAAWEVAEICTLCKSNGWILPTVYQGMYNAITRQVETELFPCLRHFGLRFYAFNPLAGGLLTGKYKYEDKDGKQPVGRFFGNTWAEMYRNRYWKEHHFEGIALVEKALQAAYGASAPSMTSATLRWMYHHSQLQGAHGDAVILGMSSLEQLEQNLAAAEEGPLEPAVVDAFNQAWHLVAHECPNYFR”: “soluble”; “MHHHHHHSSGVDLGTENLYFQSMEEHDSPTEASQPIVEEEETKTFKDLGVTDVLCEACDQLGWTKPTKIQIEAIPLALQGRDIIGLAETGSGKTGAFALPILNALLETPQRLFALVLTPTRELAFQISEQFEALGSSIGVQSAVIVGGIDSMSQSLALAKKPHIIIATPGRLIDHLENTKGFNLRALKYLVMDEADRILNMDFETEVDKILKVIPRDRKTFLFSATMTKKVQKLQRAALKNPVKCAVSS”: “soluble”. As to “MHHHHHHSSGVDLGTENLYFQSMVEDHYEMGEELGSGQFAIVRKCRQKGTGKEYAAKFIKKRRLSSSRRGVSREEIEREVNILREIRHPNIITLHDIFENKTDVVLILELVSGGELFDFLAEKESLTEDEATQFLKQILDGVHYLHSKRIAHFDLKPENIMLLDKNVPNPRIKLIDFGIAHKIEAGNEFKNIFGTPEFVAPEIVNYEPLGLEADMWSIGVITYILLSGASPFLGETKQETLTNISAVNYDFDEEYFSNTSELAKDFIRRLLVKDPKRRMTIAQSLEHSWIKAIRRRNVRGEDSG”, the “soluble on expression in E. coli” value is on record as “soluble”. Next, “MHHHHHHSSMDDPIGLFVMRPQDGEVTVGGSITFSARVAGASLLKPPVVKWFKGKWVDLSSKVGQHLQLHDSYDRASKVYLFELHITDAQPAFTGGYRCEVSTKDKFDCSNFNLTVHEAM”: “soluble”.
